Laboratory results reported in patent publication US20250188184A1 (published 2025).
Substitutions are numbered along the chain they refer to. Values belong to the binder of their own block, whether it stands above or below them.

Assays:
human CD3 epsilon [1] = target: T1, human CD3 epsilon (human, UniProt P07766 23-126, limits assumed); test: Octet, crude lysate
T1 construct: also called huCD3e
Procedure: Pool 2 consisted of paTCE molecules each containing PSMA.262 and one of 64 CD3.23 mutation combination variants. Stability and affinity of the individually expressed molecules in the form of crude lysate was evaluated by Octet. […] The binding of these anti-CD3 molecules (CD3.227, CD3.228, CD3.229 and CD3.230) to human and cynomolgus CD3 was measured by Octet and the Tₘ was measured by Differential Scanning Fluorimetry. All variants were paired with PSMA.262 except for CD3.23 which was paired with PSMA.5.

cynomolgus CD3 epsilon [2] = target: T2, cynomolgus CD3 epsilon (cynomolgus monkey, UniProt Q95LI5 22-117, limits assumed); test: Octet, uTCE
T2 construct: also called cyCD3e
T2 sequence (looked up): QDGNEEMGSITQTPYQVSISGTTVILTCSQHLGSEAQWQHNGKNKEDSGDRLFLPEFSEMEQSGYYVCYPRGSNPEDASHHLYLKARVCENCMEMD

human CD3 epsilon [3] = target: T1, human CD3 epsilon; test: Octet, uTCE
cynomolgus monkey PSMA [4] = target: T3, cynomolgus monkey PSMA (cynomolgus monkey, UniProt A0A2K5VNZ0 44-750); test: Octet, uTCE
T3 construct: also called cyPSMA; cyno PSMA

human PSMA [5] = target: T4, human PSMA (human, UniProt Q04609 44-750, limits assumed); test: Octet, uTCE
T4 construct: other Octet runs used human PSMA-Fc; also called huPSMA; prostate-specific membrane antigen
T4 sequence (Q04609 44-750 limits assumed): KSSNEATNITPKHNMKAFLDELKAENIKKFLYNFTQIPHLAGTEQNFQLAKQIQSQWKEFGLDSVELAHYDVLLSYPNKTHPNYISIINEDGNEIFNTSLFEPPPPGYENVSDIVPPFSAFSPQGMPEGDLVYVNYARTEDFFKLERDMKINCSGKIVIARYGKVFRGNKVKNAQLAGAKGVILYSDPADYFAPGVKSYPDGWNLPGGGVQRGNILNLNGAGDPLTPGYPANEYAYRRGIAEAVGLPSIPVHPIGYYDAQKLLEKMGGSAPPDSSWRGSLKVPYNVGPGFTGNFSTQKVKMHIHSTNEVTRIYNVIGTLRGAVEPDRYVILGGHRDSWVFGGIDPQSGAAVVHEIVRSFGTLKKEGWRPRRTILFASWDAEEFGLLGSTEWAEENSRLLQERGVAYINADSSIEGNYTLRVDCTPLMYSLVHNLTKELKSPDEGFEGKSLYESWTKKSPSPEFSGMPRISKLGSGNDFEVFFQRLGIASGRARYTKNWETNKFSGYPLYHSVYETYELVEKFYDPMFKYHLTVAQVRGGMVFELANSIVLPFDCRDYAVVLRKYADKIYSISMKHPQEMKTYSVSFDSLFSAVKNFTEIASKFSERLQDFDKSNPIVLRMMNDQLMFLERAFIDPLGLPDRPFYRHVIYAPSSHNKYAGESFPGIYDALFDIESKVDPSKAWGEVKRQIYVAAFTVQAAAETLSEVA

cynomolgus monkey PSMA [6] = target: T3, cynomolgus monkey PSMA; test: Biacore, uTCE
human PSMA [7] = target: T4, human PSMA; test: Biacore, uTCE
cynomolgus CD3 epsilon [8] = target: T2, cynomolgus CD3 epsilon; test: Biacore, uTCE
human CD3 epsilon [9] = target: T1, human CD3 epsilon; test: Biacore, uTCE

T1 sequence (P07766 23-126 limits assumed): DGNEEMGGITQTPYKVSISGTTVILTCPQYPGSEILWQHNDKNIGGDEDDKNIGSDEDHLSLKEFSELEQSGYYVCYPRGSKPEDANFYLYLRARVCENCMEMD

Kd (human CD3 epsilon [1]): 4.4 nM
B1: CD3.218 (AC3649) (bispecific antibody, V domains shown)
VH: EVQLVESGGGIVQPGGSLRLSCAASGFTFSTYAMNWVRQAPGKGLEWVGRIRSKYNNYATTYADSVKGRFTISRDDSKNTVYLQMNSLKTEDTAVYYCVRHENFGNSYVSWFAHWGQGTLVTVSS
VL: ELVVTQEPSLTVSPGGTVTLTCRSSNGAVTSSNYANWVQQKPGQAPRGLIGGTNKRAPGTPARFSGSLLGGKAALTLSGVQPEDEAVYYCALWYPNLWVFGGGTKLTVL
notes: paTCE with PSMA.262 VHH; crude lysate

Kd (human CD3 epsilon [1]): 32.9 nM
B2: CD3.251 (AC3682) (bispecific antibody, V domains shown)
VH: B1 VH with S30N, Y55R, G68D
VL: B1 VL
notes: as for B1

Kd (cynomolgus CD3 epsilon [2]): 40 nM | Kd (human CD3 epsilon [3]): 34.8 nM | Kd (cynomolgus monkey PSMA [4]): 47.5 nM | Kd (human PSMA [5]): 6.2 nM
B3: uTCE from AC3445 (PSMA.119-CD3.23) (bispecific antibody)
chain: GTSESATPESQVQLVESGGGVVQPGRSLRLSCAASGRTFGIYVMGWVRQAPGKEREFVAAISWSGSNRKVSDSVKGRFTISRDNSKNTLYLQMNSLRAEDTAVYYCAASNRLYGRTWYDFNESDYWGQGTQVTVSSGGGGSGGGSELVVTQEPSLTVSPGGTVTLTCRSSNGAVTSSNYANWVQQKPGQAPRGLIGGTNKRAPGTPARFSGSLLGGKAALTLSGVQPEDEAVYYCALWYPNLWVFGGGTKLTVLSESATPESGPGTSPGATPESGPGTSESATPEVQLLESGGGIVQPGGSLKLSCAASGFTFNTYAMNWVRQAPGKGLEWVARIRSKYNNYATYYADSVKDRFTISRDDSKNTVYLQMNNLKTEDTAVYYCVRHENFGNSYVSWFAHWGQGTLVTVSSGTATPESGPG
notes: release-segment residues left at the ends not specified

Kd (cynomolgus CD3 epsilon [2]): 33.7 nM | Kd (human CD3 epsilon [3]): 26.6 nM | Kd (cynomolgus monkey PSMA [6]): 13 nM | Kd (human PSMA [7]): 0.5 nM | Kd (cynomolgus CD3 epsilon [8]): 10.4 nM | Kd (human CD3 epsilon [9]): 9.83 nM | Kd (cynomolgus monkey PSMA [4]): 13.1 nM | Kd (human PSMA [5]): 1.6 nM
B4: uTCE from AC3934 (PSMA.262-CD3.228) (bispecific antibody)
chain: GTSESATPESQVQLVESGGGVVQPGRSLRLSCAASGRTFGIYVWGWVRQAPGKEREFVGAISWSGSNRKVSDSVKGRFTISRDNSKNTLYLQMNSLRAEDTAVYYCAASNKLYGRTWYDFNESDYWGQGTQVTVSSGGGGSGGGSELVVTQEPSLTVSPGGTVTLTCRSSNGAVTSSNYANWVQQKPGQAPRGLIGGTNKRAPGTPARFSGSLLGGKAALTLSGVQPEDEAVYYCALWYPNLWVFGGGTKLTVLSESATPESGPGTSPGATPESGPGTSESATPEVQLVESGGGIVQPGGSLRLSCAASGFTFSTYAMNWVRQAPGKGLEWVGRIRTKRNNYATYYADSVKGRFTISRDDSKNTVYLQMNSLKTEDTAVYYCVRHENFGNSYVSWFAHWGQGTLVTVSSGTATPESGPG
notes: release-segment residues left at the ends not specified; also called AMX500-P7 uTCE

Kd (cynomolgus CD3 epsilon [2]): 44.9 nM | Kd (human CD3 epsilon [3]): 43 nM | Kd (cynomolgus monkey PSMA [6]): 354 nM | Kd (human PSMA [7]): 19 nM | Kd (cynomolgus CD3 epsilon [8]): 26.6 nM | Kd (human CD3 epsilon [9]): 27.3 nM | Kd (cynomolgus monkey PSMA [4]): 198 nM | Kd (human PSMA [5]): 13.2 nM
B5: uTCE from AC3928 (PSMA.350-CD3.23) (bispecific antibody)
chain: B3 chain with M44W, V47F, A59G, I61M, R111K, L112E
notes: release-segment residues left at the ends not specified; also called AMX500-P6 uTCE
